Each sequence was assayed on Escherichia coli TOP10 (assay: shrunken log2 fold change of peptide-encoding DNA abundance (4.5 h post-induction vs induction); higher = less antimicrobial activity (less host growth inhibition)). Settings: time post-induction: 4.5 h; library: site-saturation at positions 5, 18, 19, 20.
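Further: peptides expressed intracellularly from a pBAD plasmid library in pooled LB shake-flask culture, induced with 0.3% L-arabinose, DNA abundance read by NGS, three biological replicates, DESeq2 with apeglm shrinkage.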

Sequence | shrunken log2 fold change
RRIRIRPPRLPRPRPRPIAMPRP | -0.216
RRIRWRPPRLPRPRPRPFAIPRP | 0.086
RRIRWRPPRLPRPRPRPLKIPRP | -0.195
RRIRWRPPRLPRPRPRPKWLPRP | 0.19
RRIRERPPRLPRPRPRPQHAPRP | -0.107
RRIRVRPPRLPRPRPRPHQTPRP | -0.443
RRIRSRPPRLPRPRPRPLCSPRP | 0.0443
RRIRLRPPRLPRPRPRPFGNPRP | -0.498
RRIRWRPPRLPRPRPRPEMDPRP | 0.7
RRIRPRPPRLPRPRPRPWFVPRP | -0.25
RRIRPRPPRLPRPRPRPVWMPRP | 0.136
RRIRKRPPRLPRPRPRPQAWPRP | 0.314
RRIRKRPPRLPRPRPRPIPHPRP | 0.359
RRIRKRPPRLPRPRPRPESLPRP | -0.024
RRIRRRPPRLPRPRPRPEYNPRP | -0.103
RRIRWRPPRLPRPRPRPCWWPRP | 0.22
RRIRIRPPRLPRPRPRPTNVPRP | -0.174
RRIRVRPPRLPRPRPRPHHLPRP | -0.24
RRIRQRPPRLPRPRPRPWMWPRP | -0.457
RRIRSRPPRLPRPRPRPDNVPRP | 4.24
RRIRTRPPRLPRPRPRPYDAPRP | 0.0888
RRIRMRPPRLPRPRPRPWTKPRP | -0.0384
RRIRRRPPRLPRPRPRPELSPRP | 0.0649
RRIRCRPPRLPRPRPRPYLRPRP | -0.00889
RRIRMRPPRLPRPRPRPLNGPRP | -0.00843

Sequence | shrunken log2 fold change
RRIRVRPPRLPRPRPRPQWPPRP | 0.336
RRIRDRPPRLPRPRPRPIGHPRP | 0.012
RRIRDRPPRLPRPRPRPWETPRP | 0.192
RRIRARPPRLPRPRPRPQMPPRP | 0.465
RRIRSRPPRLPRPRPRPCMCPRP | -0.0077
RRIRDRPPRLPRPRPRPNSGPRP | -0.269
RRIRKRPPRLPRPRPRPSFIPRP | -0.262
RRIRIRPPRLPRPRPRPPHTPRP | -0.055
RRIRWRPPRLPRPRPRPPVMPRP | 0.00935
RRIRMRPPRLPRPRPRPKTIPRP | 0.0873
RRIRERPPRLPRPRPRPIRHPRP | -0.397
RRIRYRPPRLPRPRPRPKFLPRP | -0.139
RRIRGRPPRLPRPRPRPRLQPRP | 0.759
RRIRKRPPRLPRPRPRPGNNPRP | -0.107
RRIRYRPPRLPRPRPRPGCFPRP | -0.349
RRIRMRPPRLPRPRPRPCDDPRP | 0.553
RRIRFRPPRLPRPRPRPNIPPRP | -0.67
RRIRCRPPRLPRPRPRPGWAPRP | 0.606
RRIRRRPPRLPRPRPRPQVSPRP | 0.0704
RRIRNRPPRLPRPRPRPTDVPRP | -0.0793
RRIRFRPPRLPRPRPRPNMAPRP | -0.245
RRIRTRPPRLPRPRPRPGAYPRP | -0.143
RRIRDRPPRLPRPRPRPDTWPRP | 0.335
RRIRGRPPRLPRPRPRPIFRPRP | 0.0691
RRIRFRPPRLPRPRPRPECFPRP | 0.0331

Sequence | shrunken log2 fold change
RRIRYRPPRLPRPRPRPKPWPRP | 0.03
RRIRFRPPRLPRPRPRPFNGPRP | -0.163
RRIRQRPPRLPRPRPRPIYKPRP | -0.12
RRIRPRPPRLPRPRPRPYLHPRP | -0.471
RRIRFRPPRLPRPRPRPIPIPRP | -0.648
RRIRSRPPRLPRPRPRPGKSPRP | -0.0274
RRIRIRPPRLPRPRPRPNWTPRP | 0.117
RRIRMRPPRLPRPRPRPWIGPRP | -0.0941
RRIRLRPPRLPRPRPRPSQCPRP | -0.114
RRIRFRPPRLPRPRPRPGYKPRP | -0.438
RRIRERPPRLPRPRPRPYSYPRP | -0.0155
RRIRKRPPRLPRPRPRPCCIPRP | 0.243
RRIRWRPPRLPRPRPRPALYPRP | 0.232
RRIRARPPRLPRPRPRPQYWPRP | -0.167
RRIRARPPRLPRPRPRPMETPRP | -0.0508
RRIRVRPPRLPRPRPRPTAHPRP | 0.246
RRIRQRPPRLPRPRPRPDSTPRP | 0.139
RRIRSRPPRLPRPRPRPFVIPRP | -0.206
RRIRGRPPRLPRPRPRPPAEPRP | 1.64
RRIRNRPPRLPRPRPRPKGAPRP | 0.476
RRIRKRPPRLPRPRPRPSRIPRP | 0.156
RRIRYRPPRLPRPRPRPDTCPRP | -0.233
RRIRFRPPRLPRPRPRPRQNPRP | 0.353
RRIRYRPPRLPRPRPRPYLVPRP | -0.536
RRIRMRPPRLPRPRPRPRTIPRP | 0.229

Sequence | shrunken log2 fold change
RRIRLRPPRLPRPRPRPVLWPRP | 0.389
RRIRNRPPRLPRPRPRPRGQPRP | 0.114
RRIRGRPPRLPRPRPRPSLRPRP | 0.57
RRIRIRPPRLPRPRPRPYKCPRP | -0.199
RRIRGRPPRLPRPRPRPQHDPRP | -0.000778
RRIRYRPPRLPRPRPRPILGPRP | -0.00192
RRIRGRPPRLPRPRPRPVLGPRP | 0.343
RRIRPRPPRLPRPRPRPNFFPRP | 0.323
RRIRNRPPRLPRPRPRPNRRPRP | -0.133
RRIRFRPPRLPRPRPRPWKGPRP | -0.0869
RRIRGRPPRLPRPRPRPQYVPRP | -0.0061
RRIRKRPPRLPRPRPRPDFPPRP | 0.416
RRIRHRPPRLPRPRPRPNQCPRP | -0.201
RRIRQRPPRLPRPRPRPGSMPRP | -0.174
RRIRQRPPRLPRPRPRPPATPRP | 0.452
RRIRSRPPRLPRPRPRPHEAPRP | 0.0366
RRIRFRPPRLPRPRPRPNMNPRP | -0.953
RRIRNRPPRLPRPRPRPPEDPRP | 0.174
RRIRPRPPRLPRPRPRPISSPRP | -0.0101
RRIRDRPPRLPRPRPRPPWKPRP | 0.141
RRIRCRPPRLPRPRPRPCCCPRP | -0.224
RRIRHRPPRLPRPRPRPCFKPRP | -1.25
RRIRTRPPRLPRPRPRPNHRPRP | -0.209
RRIRPRPPRLPRPRPRPCTEPRP | 0.0737
RRIRDRPPRLPRPRPRPSLPPRP | -0.00636

Sequence | shrunken log2 fold change
RRIRQRPPRLPRPRPRPSRCPRP | -0.177
RRIRPRPPRLPRPRPRPLYDPRP | 2.73
RRIRTRPPRLPRPRPRPYPKPRP | -0.0976
RRIRRRPPRLPRPRPRPLLYPRP | 0.138
RRIRDRPPRLPRPRPRPTWQPRP | 0.542
RRIRFRPPRLPRPRPRPSSPPRP | -0.284
RRIRRRPPRLPRPRPRPALCPRP | 0.334
RRIRIRPPRLPRPRPRPHGHPRP | -0.216
RRIRRRPPRLPRPRPRPCGPPRP | 0.517
RRIRGRPPRLPRPRPRPHDRPRP | -0.0826
RRIRCRPPRLPRPRPRPMQPPRP | 0.462
RRIRSRPPRLPRPRPRPLKLPRP | -0.15
RRIRYRPPRLPRPRPRPCNRPRP | -0.182
RRIRTRPPRLPRPRPRPYFGPRP | -0.589
RRIRKRPPRLPRPRPRPNACPRP | 0.0357
RRIRVRPPRLPRPRPRPTDEPRP | -0.148
RRIRIRPPRLPRPRPRPSTFPRP | -0.329
RRIRERPPRLPRPRPRPMLSPRP | -0.376
RRIRLRPPRLPRPRPRPGSLPRP | -0.0743
RRIRLRPPRLPRPRPRPIHHPRP | -0.246
RRIRPRPPRLPRPRPRPPTSPRP | 0.276
RRIRVRPPRLPRPRPRPNACPRP | 0.215
RRIRERPPRLPRPRPRPEHPPRP | -0.0878
RRIRKRPPRLPRPRPRPCGGPRP | 0.225
RRIRERPPRLPRPRPRPGQMPRP | 0.0413

Sequence | shrunken log2 fold change
RRIRNRPPRLPRPRPRPDTHPRP | -0.105
RRIRLRPPRLPRPRPRPYMPPRP | -0.509
RRIRSRPPRLPRPRPRPFAEPRP | 0.256
RRIRRRPPRLPRPRPRPDIIPRP | -0.135
RRIRKRPPRLPRPRPRPYITPRP | -0.548
RRIRLRPPRLPRPRPRPACQPRP | -0.0858
RRIRYRPPRLPRPRPRPYEHPRP | -0.0505
RRIRKRPPRLPRPRPRPWWKPRP | -0.103
RRIRERPPRLPRPRPRPIYQPRP | -0.394
RRIRPRPPRLPRPRPRPSFLPRP | -0.271
RRIRERPPRLPRPRPRPFLEPRP | -0.436
RRIRDRPPRLPRPRPRPPVAPRP | 0.304
RRIRKRPPRLPRPRPRPLDSPRP | 0.233
RRIRKRPPRLPRPRPRPMVRPRP | 0.00145
RRIRKRPPRLPRPRPRPQTCPRP | -0.132
RRIRMRPPRLPRPRPRPVLAPRP | 0.493
RRIRSRPPRLPRPRPRPKRLPRP | 0.297
RRIRIRPPRLPRPRPRPASFPRP | -0.167
RRIRCRPPRLPRPRPRPRIGPRP | 0.016
RRIRWRPPRLPRPRPRPIANPRP | 0.00334
RRIRDRPPRLPRPRPRPQTVPRP | 0.0628
RRIRRRPPRLPRPRPRPVWYPRP | 0.18
RRIRPRPPRLPRPRPRPKARPRP | 0.691
RRIRLRPPRLPRPRPRPACHPRP | 0.186
RRIRPRPPRLPRPRPRPTVYPRP | -0.296
